# Results: PMC11429872 (bioRxiv, 2024)
# Molecular target: F-actin (rabbit, UniProt P68135 1-377)
# Assay: co-sedimentation
row,Kd [µM],Binder
1,24.6 ± 12,"β-III-spectrin-FLAG fragment (amino acids 1-1066), wild-type (domain or fragment) MSSTLSPTDFDSLEIQGQYSDINNRWDLPDSDWDNDSSSARLFERSRIKALADEREAVQKKTFTKWVNSHLARVTCRVGDLYSDLRDGRNLLRLLEVLSGEILPKPTKGRMRIHCLENVDKALQFLKEQKVHLENMGSHDIVDGNHRLTLGLVWTIILRFQIQDISVETEDNKEKKSAKDALLLWCQMKTAGYPNVNVHNFTTSWRDGLAFNAIVHKHRPDLLDFESLKKCNAHYNLQNAFNLAEKELGLTKLLDPEDVNVDQPDEKSIITYVATYYHYFSKMKALAVEGKRIGKVLDHAMEAERLVEKYESLASELLQWIEQTIVTLNDRQLANSLSGVQNQLQSFNSYRTVEKPPKFTEKGNLEVLLFTIQSKLRANNQKVYTPREGRLISDINKAWERLEKAEHERELALRTELIRQEKLEQLAARFDRKAAMRETWLSENQRLVSQDNFGLELAAVEAAVRKHEAIETDIVAYSGRVQAVDAVAAELAAERYHDIKRIAARQHNVARLWDFLRQMVAARRERLLLNLELQKVFQDLLYLMDWMEEMKGRLQSQDLGRHLAGVEDLLQLHELVEADIAVQAERVRAVSASALRFCNPGKEYRPCDPQLVSERVAKLEQSYEALCELAAARRARLEESRRLWRFLWEVGEAEAWVREQQHLLASADTGRDLTGALRLLNKHTALRGEMSGRLGPLKLTLEQGQQLVAEGHPGASQASARAAELQAQWERLEALAEERAQRLAQAASLYQFQADANDMEAWLVDALRLVSSPELGHDEFSTQALARQHRALEEEIRSHRPTLDALREQAAALPPTLSRTPEVQSRVPTLERHYEELQARAGERARALEAALALYTMLSEAGACGLWVEEKEQWLNGLALPERLEDLEVVQQRFETLEPEMNTLAAQITAVNDIAEQLLKANPPGKDRIVNTQEQLNHRWQQFRRLADGKKAALTSALSIQNYHLECTETQAWMREKTKVIESTQGLGNDLAGVLALQRKLAGTERDLEAIAARVGELTREANALAAGHPAQAVAINARLREVQTGWEDLRATMRRREESLGEARR"
2,34.9 ± 14.4,"β-III-spectrin-FLAG fragment (amino acids 1-1066), R480W (domain or fragment) MSSTLSPTDFDSLEIQGQYSDINNRWDLPDSDWDNDSSSARLFERSRIKALADEREAVQKKTFTKWVNSHLARVTCRVGDLYSDLRDGRNLLRLLEVLSGEILPKPTKGRMRIHCLENVDKALQFLKEQKVHLENMGSHDIVDGNHRLTLGLVWTIILRFQIQDISVETEDNKEKKSAKDALLLWCQMKTAGYPNVNVHNFTTSWRDGLAFNAIVHKHRPDLLDFESLKKCNAHYNLQNAFNLAEKELGLTKLLDPEDVNVDQPDEKSIITYVATYYHYFSKMKALAVEGKRIGKVLDHAMEAERLVEKYESLASELLQWIEQTIVTLNDRQLANSLSGVQNQLQSFNSYRTVEKPPKFTEKGNLEVLLFTIQSKLRANNQKVYTPREGRLISDINKAWERLEKAEHERELALRTELIRQEKLEQLAARFDRKAAMRETWLSENQRLVSQDNFGLELAAVEAAVRKHEAIETDIVAYSGWVQAVDAVAAELAAERYHDIKRIAARQHNVARLWDFLRQMVAARRERLLLNLELQKVFQDLLYLMDWMEEMKGRLQSQDLGRHLAGVEDLLQLHELVEADIAVQAERVRAVSASALRFCNPGKEYRPCDPQLVSERVAKLEQSYEALCELAAARRARLEESRRLWRFLWEVGEAEAWVREQQHLLASADTGRDLTGALRLLNKHTALRGEMSGRLGPLKLTLEQGQQLVAEGHPGASQASARAAELQAQWERLEALAEERAQRLAQAASLYQFQADANDMEAWLVDALRLVSSPELGHDEFSTQALARQHRALEEEIRSHRPTLDALREQAAALPPTLSRTPEVQSRVPTLERHYEELQARAGERARALEAALALYTMLSEAGACGLWVEEKEQWLNGLALPERLEDLEVVQQRFETLEPEMNTLAAQITAVNDIAEQLLKANPPGKDRIVNTQEQLNHRWQQFRRLADGKKAALTSALSIQNYHLECTETQAWMREKTKVIESTQGLGNDLAGVLALQRKLAGTERDLEAIAARVGELTREANALAAGHPAQAVAINARLREVQTGWEDLRATMRRREESLGEARR"
